Reference: PMC3245944 (Nucleic Acids Research, 2011)
Like-named read-outs stand apart in the source and are kept apart here.

T1: GST-tagged Mgs1* (D31A) (S. cerevisiae, UniProt P40151 1-587, D31A)
T1 sequence: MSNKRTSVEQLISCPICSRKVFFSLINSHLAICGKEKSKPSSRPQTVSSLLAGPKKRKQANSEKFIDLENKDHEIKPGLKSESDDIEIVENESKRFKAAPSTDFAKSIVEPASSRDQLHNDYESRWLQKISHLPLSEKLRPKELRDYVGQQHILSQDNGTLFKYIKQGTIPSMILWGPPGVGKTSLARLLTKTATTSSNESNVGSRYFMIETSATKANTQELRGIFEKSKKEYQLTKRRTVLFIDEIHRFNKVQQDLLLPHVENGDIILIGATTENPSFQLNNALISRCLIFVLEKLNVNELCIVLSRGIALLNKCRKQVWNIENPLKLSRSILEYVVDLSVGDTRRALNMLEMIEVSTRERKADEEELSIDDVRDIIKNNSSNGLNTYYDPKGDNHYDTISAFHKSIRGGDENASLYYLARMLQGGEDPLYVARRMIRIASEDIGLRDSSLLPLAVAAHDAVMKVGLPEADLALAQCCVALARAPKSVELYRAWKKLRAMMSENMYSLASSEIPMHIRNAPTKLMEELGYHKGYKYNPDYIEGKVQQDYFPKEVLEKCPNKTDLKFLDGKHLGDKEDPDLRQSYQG

T2: GST-tagged Mgs1 (S. cerevisiae, UniProt P40151 1-587)
T2 sequence: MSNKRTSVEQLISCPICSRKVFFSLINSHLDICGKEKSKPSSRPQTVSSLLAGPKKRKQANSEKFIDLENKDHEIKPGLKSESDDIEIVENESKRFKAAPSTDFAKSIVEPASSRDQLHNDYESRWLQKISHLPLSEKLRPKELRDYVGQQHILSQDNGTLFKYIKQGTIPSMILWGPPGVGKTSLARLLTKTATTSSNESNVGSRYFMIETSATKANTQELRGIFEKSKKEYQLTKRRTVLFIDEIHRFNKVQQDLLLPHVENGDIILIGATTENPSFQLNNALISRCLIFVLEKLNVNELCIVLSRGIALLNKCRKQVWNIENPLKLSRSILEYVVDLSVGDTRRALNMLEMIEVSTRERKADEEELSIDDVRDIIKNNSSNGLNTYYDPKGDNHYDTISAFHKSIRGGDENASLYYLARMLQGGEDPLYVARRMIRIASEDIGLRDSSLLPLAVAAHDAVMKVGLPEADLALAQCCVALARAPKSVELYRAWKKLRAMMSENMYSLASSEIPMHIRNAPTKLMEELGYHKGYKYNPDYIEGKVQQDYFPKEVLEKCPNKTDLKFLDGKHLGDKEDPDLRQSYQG


Assays:
Assay in all cases: pull-down
GST-tagged Mgs1* (D31A) [1] = target: T1, GST-tagged Mgs1* (D31A)
GST-tagged Mgs1 [2] = target: T2, GST-tagged Mgs1
GST-tagged Mgs1* (D31A) [3] = target: T1, GST-tagged Mgs1* (D31A); remark: listed apart in the source
GST-tagged Mgs1 [4] = target: T2, GST-tagged Mgs1; remark: listed apart in the source

Binder | binding result (GST-tagged Mgs1* (D31A) [1]) | binding result (GST-tagged Mgs1 [2]) | binding result (GST-tagged Mgs1* (D31A) [3]) | binding result (GST-tagged Mgs1 [4])
His6-tagged PCNA (natural protein) MLEAKFEEASLFKRIIDGFKDCVQLVNFQCKEDGIIAQAVDDSRVLLVSLEIGVEAFQEYRCDHPVTLGMDLTSLSKILRCGNNTDTLTLIADNTPDSIILLFEDTKKDRIAEYSLKLMDIDADFLKIEELQYDSTLSLPSSEFSKIVRDLSQLSDSINIMITKETIKFVADGDIGSGSVIIKPFVDMEHPETSIKLEMDQPVDLTFGAKYLLDIIKGSSLSDRVGIRLSSEAPALFQFDLKSGFLQFFLAPKFNDEE | binds | binds | – | –
untagged PCNA (unmodified) (natural protein) MLEAKFEEASLFKRIIDGFKDCVQLVNFQCKEDGIIAQAVDDSRVLLVSLEIGVEAFQEYRCDHPVTLGMDLTSLSKILRCGNNTDTLTLIADNTPDSIILLFEDTKKDRIAEYSLKLMDIDADFLKIEELQYDSTLSLPSSEFSKIVRDLSQLSDSINIMITKETIKFVADGDIGSGSVIIKPFVDMEHPETSIKLEMDQPVDLTFGAKYLLDIIKGSSLSDRVGIRLSSEAPALFQFDLKSGFLQFFLAPKFNDEE | – | – | binds | binds
